Our source for the Kd values is the Immune Epitope Database (IEDB).

As a reminder, the Kd is the free concentration of one partner at which half of the binding sites on the other are occupied at equilibrium, for simple one-to-one binding.

The first experiment addresses HLA-A*68:01. The experiment in a line: IEDB peptide-MHC binding, purified MHC/competitive/radioactivity; filed as Kd, often an IC50 or EC50 that approximates it; ≥ and ≤ were set here for values at or beyond the usual limits of such assays. Conditions: source organism: Dengue virus 1 Brazil/97-11/1997.
As for DTMTYKCPR, the dissociation constant (Kd) came to 67.1 nM.

Staying with this experiment, now noted: source organism: Dengue virus 1 Nauru/West Pac/1974.
With STVSQLAKR, the Kd is 9.66 nM.

The experiment is the same for the next values; noted with them: source organism: Dengue virus 2 Jamaica/1409/1983.
For DAIDGEYRLR, the Kd stood at 17.1 nM. For IAVSMANIFR, the dissociation constant Kd was determined as 17.3 nM.

Still in this experiment, the particulars now being: source organism: Dengue virus 3 Martinique/1243/1999.
For the sequence ATTVITPMLR, the Kd came out at 47.2 nM. ITANPVVTKK: the Kd turned out to be 23.9 nM.

Still in this experiment, the particulars now being: source organism: Dengue virus 3 Singapore/8120/1995.
With ATLAFHLTSR, the dissociation constant (Kd) came out at 50.9 nM.

The experiment is the same for the next values; noted with them: source organism: Dengue virus 4 Philippines/H241/1956.
As for ETTILDVDLR, the Kd amounted to 45 nM. On the same count and under the same terms, next, HLAIMAVFK: 70.6 nM. Still for that read-out and setting: next, NIVMLHTTER: 16.9 nM; QAIDGEFRLR: 15.5 nM.

The experiment is the same for the next values; noted with them: source organism: Lassa virus Josiah.
For the sequence ENAVWDQYK, the Kd stood at 42.9 nM.

Staying with this experiment, now noted: source organism: SARS coronavirus Tor2.
As to AAYFVGYLK, the equilibrium dissociation constant (Kd) was determined as 3.19 nM. Consider AISDYDYYR, for which the equilibrium dissociation constant (Kd) came out at 118 nM.

For the sequence AVMYMGTLSY, the Kd is 2580 nM.

Regarding CVFAYVGCY, the equilibrium dissociation constant (Kd) turned out to be 4120 nM. With DVFHLYLQY, the Kd is 188 nM. Still for that read-out and setting: to GLALYYPSAR belongs 89.8 nM.

Still in this experiment, the particulars now being: source organism: Vaccinia virus WR.
In the case of AATIQTPTK, the Kd was 1670 nM.

As to AIITPVVFY, the dissociation constant (Kd) was 1470 nM. Regarding AIITPVVFYR, the dissociation constant (Kd) came out at 1.72 nM. The same measure, in the same setting: next, ASLKNTISK: 3750 nM; ASTTENAAY: 2420 nM.

As to AVNTPVSMTY, the dissociation constant Kd was found to be 4660 nM. Regarding AVRAFLLRHY, the Kd is not below 29500 nM. Still for that read-out and setting: next, CICYGSYSLY: 1580 nM; CIPSRSKMLK: 27.9 nM.

For DFSKSTSPTR, the Kd was found to be 112 nM. Still for that read-out and setting: to DISKLTNFK belongs 1.21 nM; to DIVNEHDIKY, 4610 nM.

For the sequence DLTALLSCIR, the Kd is 10.9 nM.

Take DVLEIINDK: the dissociation constant (Kd) was determined as 720 nM.

Regarding EINEWLSSK, the equilibrium dissociation constant (Kd) came to 3.76 nM. Same read-out and setting: next, ELALTDVEKR: 149 nM. In the case of ELESLSKRER, the Kd was 388 nM.

With ELQSVLVTTY, the Kd worked out at 1480 nM. Same read-out and setting: to EVGSIRCVK belongs 1.19 nM; to FFVFIHMVR, 0.0241 nM; to FIKPVSDLY, 252 nM. The same measure, in the same setting: to FITKEIKNR belongs 276 nM; to FMRDWNSKY, not below 77700 nM. Same read-out and setting: next, FSAGAGVLDK: 15 nM; GFCIPSRSK: not below 38600 nM. As for GVSYEVFDDY, the Kd was not below 70200 nM. Consider IQKITVFNK, for which the dissociation constant (Kd) was not below 30300 nM.

A further experiment concerns the target HLA-A*31:01. Described as above. Conditions: source organism: Dengue virus 1 Brazil/97-11/1997.
Regarding DTMTYKCPR, the Kd was 4880 nM. Same read-out and setting: next, KWLWGFLSR: not below 77900 nM.

Still in this experiment, the particulars now being: source organism: Dengue virus 1 Nauru/West Pac/1974.
With STVSQLAKR, the Kd is not below 77900 nM.

The experiment is the same for the next values; noted with them: source organism: Dengue virus 2 Jamaica/1409/1983.
Regarding IAVSMANIFR, the equilibrium dissociation constant (Kd) was found to be 37.4 nM.

As for KKSKAINVLR, the Kd was found to be 163 nM.

Still in this experiment, the particulars now being: source organism: Dengue virus 3 Martinique/1243/1999.
As for ATTVITPMLR, the Kd amounted to 163 nM.

Still in this experiment, the particulars now being: source organism: Dengue virus 3 Singapore/8120/1995.
On to ATLAFHLTSR, for which the equilibrium dissociation constant (Kd) is 2.69 nM.

The same experiment, now with this note: source organism: Dengue virus 4 Philippines/H241/1956.
Regarding EMGANFRAGR, the dissociation constant (Kd) was determined as 67.3 nM. Still for that read-out and setting: to GYVLGIFLR belongs 15.7 nM.

In the case of KLVTQWCCR, the Kd was 11.9 nM.

Staying with this experiment, now noted: source organism: Dengue virus 4 Thailand/0348/1991.
In the case of VMAFHLSTR, the dissociation constant (Kd) amounted to 9.39 nM.

The experiment is the same for the next values; noted with them: source organism: Lassa virus Josiah.
Regarding ENAVWDQYK, the equilibrium dissociation constant (Kd) is not below 22500 nM.

The same experiment, now with this note: source organism: Mammarenavirus guanaritoense.
As to FESLFKCLSH, the Kd came to 608 nM.

Still in this experiment, the particulars now being: source organism: SARS coronavirus Tor2.
AAYFVGYLK: the Kd amounted to 178 nM. On the same count and under the same terms, next, AISDYDYYR: 26 nM; AVMYMGTLSY: 3200 nM.

As to CVFAYVGCY, the dissociation constant (Kd) was 11900 nM. Same read-out and setting: next, DVFHLYLQY: 4240 nM. Still for that read-out and setting: next, GLALYYPSAR: 993 nM.

The experiment is the same for the next values; noted with them: source organism: Vaccinia virus WR.
Regarding AATIQTPTK, the equilibrium dissociation constant (Kd) was found to be 137 nM.

As to AIITPVVFY, the Kd was not below 10000 nM.

Consider AIITPVVFYR, for which the Kd worked out at 11.6 nM. Still for that read-out and setting: to ASLKNTISK belongs 1800 nM; to ASTTENAAY, not below 71400 nM. The same measure, in the same setting: to AVNTPVSMTY belongs 7440 nM. On the same count and under the same terms, next, AVRAFLLRHY: 5240 nM.

For the sequence CICYGSYSLY, the dissociation constant (Kd) came to 4390 nM. Same read-out and setting: next, CIPSRSKMLK: 64.5 nM; DFSKSTSPTR: 278 nM. On the same count and under the same terms, to DISKLTNFK belongs 5480 nM; to DIVNEHDIKY, not below 37200 nM. As to DLTALLSCIR, the Kd came out at 510 nM. Same read-out and setting: to DVLEIINDK belongs not below 53300 nM; to EINEWLSSK, 7100 nM; to ELALTDVEKR, 11800 nM.

For the sequence ELESLSKRER, the Kd was determined as 3450 nM. On the same count and under the same terms, next, ELQSVLVTTY: 16100 nM; EVGSIRCVK: 5910 nM; FFVFIHMVR: 1.08 nM. Same read-out and setting: next, FIKPVSDLY: 634 nM; FITKEIKNR: 3590 nM; FMRDWNSKY: not below 77900 nM.

Consider FSAGAGVLDK, for which the dissociation constant Kd was 575 nM. For the sequence GFCIPSRSK, the Kd is 179 nM.

In the case of GVSYEVFDDY, the equilibrium dissociation constant (Kd) was not below 70000 nM.

In another experiment the target is HLA-A*03:01. The experiment is described as above. Conditions: source organism: Dengue virus 2 Jamaica/1409/1983.
Regarding AIFKLTYQNK, the Kd was 41.4 nM. On the same count and under the same terms, next, GIFLFLMSGK: 85.5 nM; MLINRFTMK: 3.57 nM; QLKLNWFKK: 134 nM.

Still in this experiment, the particulars now being: source organism: Dengue virus 4 Dominica/814669/1981.
AIKILIGFRK: the Kd came to 215 nM. On the same count and under the same terms, next, ALTPPVSDLK: 86.9 nM.

Staying with this experiment, now noted: source organism: Dengue virus 4 Philippines/H241/1956.
For HLAIMAVFK, the Kd stood at 5.77 nM. Same read-out and setting: next, IVSSVNTTSK: 37.2 nM.

Staying with this experiment, now noted: source organism: Lassa virus Josiah.
For the sequence ENAVWDQYK, the Kd is 12600 nM.

The same experiment, now with this note: source organism: Mammarenavirus guanaritoense.
With FESLFKCLSH, the equilibrium dissociation constant (Kd) was determined as 5530 nM.

The experiment is the same for the next values; noted with them: source organism: SARS coronavirus Tor2.
In the case of AAYFVGYLK, the Kd turned out to be 3.9 nM. On to AISDYDYYR, for which the dissociation constant Kd turned out to be 86.5 nM. Still for that read-out and setting: next, AVMYMGTLSY: 7.67 nM; CVFAYVGCY: 19200 nM. Turning to DVFHLYLQY, the Kd is 5470 nM.

Turning to GLALYYPSAR, the equilibrium dissociation constant (Kd) was 226 nM.

Staying with this experiment, now noted: source organism: Vaccinia virus WR.
As to AATIQTPTK, the Kd turned out to be 4120 nM. In the case of AIITPVVFY, the dissociation constant (Kd) was found to be 409 nM. Still for that read-out and setting: next, AIITPVVFYR: 3700 nM.
